# Patent publication US20120114652A1 (AbbVie / Abbott, published 2012)
# T1: rat PAI-1 (rat, UniProt P20961 24-402)
# T1 sequence: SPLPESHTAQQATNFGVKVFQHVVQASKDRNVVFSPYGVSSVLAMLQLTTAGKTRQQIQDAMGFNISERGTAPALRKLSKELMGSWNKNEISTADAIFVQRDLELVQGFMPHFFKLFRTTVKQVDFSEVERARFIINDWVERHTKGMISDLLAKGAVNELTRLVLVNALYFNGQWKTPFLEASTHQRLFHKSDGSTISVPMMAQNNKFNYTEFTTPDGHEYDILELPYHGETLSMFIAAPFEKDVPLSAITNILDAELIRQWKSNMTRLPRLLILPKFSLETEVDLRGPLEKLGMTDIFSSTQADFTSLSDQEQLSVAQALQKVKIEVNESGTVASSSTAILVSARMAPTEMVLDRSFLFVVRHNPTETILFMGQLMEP
# T2: rabbit PAI-1 (rabbit)
# T2 chain: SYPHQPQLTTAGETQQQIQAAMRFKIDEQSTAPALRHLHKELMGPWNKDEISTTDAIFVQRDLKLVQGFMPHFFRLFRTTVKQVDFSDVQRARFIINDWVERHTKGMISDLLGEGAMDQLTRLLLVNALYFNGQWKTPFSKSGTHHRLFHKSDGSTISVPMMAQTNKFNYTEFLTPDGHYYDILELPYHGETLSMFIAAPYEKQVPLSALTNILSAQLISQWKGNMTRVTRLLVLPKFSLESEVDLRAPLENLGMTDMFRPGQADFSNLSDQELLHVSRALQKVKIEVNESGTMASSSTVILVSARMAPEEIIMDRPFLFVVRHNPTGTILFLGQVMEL
# T3: PAI-3 (UniProt P05154 26-406, limits assumed)
# T3 sequence (looked up): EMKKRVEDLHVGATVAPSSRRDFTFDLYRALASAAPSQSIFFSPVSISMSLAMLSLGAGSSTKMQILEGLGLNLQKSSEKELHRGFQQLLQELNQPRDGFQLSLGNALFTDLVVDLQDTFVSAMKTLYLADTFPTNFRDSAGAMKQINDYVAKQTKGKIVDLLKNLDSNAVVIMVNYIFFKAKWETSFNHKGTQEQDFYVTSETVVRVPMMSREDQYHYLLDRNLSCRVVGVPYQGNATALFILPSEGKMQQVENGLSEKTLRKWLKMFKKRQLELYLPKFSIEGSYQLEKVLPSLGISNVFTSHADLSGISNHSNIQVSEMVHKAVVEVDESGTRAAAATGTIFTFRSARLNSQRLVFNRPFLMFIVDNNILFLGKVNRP
# T4: α2-antiplasmin (UniProt P08697 40-491, limits assumed)
# T4 sequence (looked up): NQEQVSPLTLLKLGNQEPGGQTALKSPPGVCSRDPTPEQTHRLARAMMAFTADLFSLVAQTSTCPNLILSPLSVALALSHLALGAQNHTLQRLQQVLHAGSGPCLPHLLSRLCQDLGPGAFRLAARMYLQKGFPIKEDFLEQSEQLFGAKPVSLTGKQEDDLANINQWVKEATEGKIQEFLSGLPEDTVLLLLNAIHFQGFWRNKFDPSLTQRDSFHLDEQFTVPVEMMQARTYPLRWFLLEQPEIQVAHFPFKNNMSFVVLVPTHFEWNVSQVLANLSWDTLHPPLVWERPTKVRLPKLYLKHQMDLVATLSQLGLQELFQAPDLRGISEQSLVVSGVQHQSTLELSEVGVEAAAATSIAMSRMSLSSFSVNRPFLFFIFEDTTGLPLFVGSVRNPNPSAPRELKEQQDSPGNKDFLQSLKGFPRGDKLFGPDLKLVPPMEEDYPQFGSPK
# B1: PICK167_A01 IgG1 (antibody, V domains shown)
# VH: QVQLQQSGAEVKKPGSSVKVSCKASGGTFSSYAISWVRQAPGQRLEWMGGIIPTFGTANYAQKFQGRVTITADESTSTAYMELSGLRSEDTAVYYCARERRQWLEGHFDYWGRGTPVTVSS
# VL: DIQMTQSPSFLSASIGDRVTITCRASEGIYHNLAWYQQKPGKAPKLLIYKASSLASGAPSRFSGSRSGTDFTLTISSLQPDDFATYYCQQYSNYPLTFGGGTKLEIKR
# How the values were obtained:
# latent human PAI-1 [1] = target: T5, latent human PAI-1 (human, UniProt P05121 24-402); assay: IgG competition ELISA (DELFIA) against biotinylated human PAI-1, one-site binding analysis; column Human latent
# T5 construct: also called latent PAI-1
# [2] = target: T6, glycosylated active human PAI-1 produced by CHO cells (human, UniProt P05121 24-402, N-glycosylated (CHO-produced)); assay: IgG competition ELISA (DELFIA) against biotinylated human PAI-1, one-site binding analysis; column Human glycosylated
# T6 construct: also called hu glyco; human glycosylated PAI-1
# latent human PAI-1 [3] = target: T5, latent human PAI-1; assay: IgG competition ELISA (DELFIA), one-site binding analysis
# rat PAI-1 [4] = target: T1, rat PAI-1; assay: cell-based or functional assay
# [5] = target: human PAI-1, active, wild-type, non-glycosylated (E. coli-derived) (human, UniProt P05121 24-402); assay: cell-based or functional assay
# cynomolgus PAI-1 = cynomolgus PAI-1 (cynomolgus, UniProt P05121 24-402 (human entry), limits assumed); assay: cell-based or functional assay
# rat PAI-1 [6] = target: T1, rat PAI-1; assay: IgG competition ELISA (DELFIA) against biotinylated human PAI-1, one-site binding analysis; column Rat
# rabbit PAI-1 = target: T2, rabbit PAI-1; assay: IgG competition ELISA (DELFIA) against biotinylated human PAI-1, one-site binding analysis; column Rabbit
# [7] = target: T7, dog PAI-1 (bacterially-derived active dog PAI-1) (dog); assay: IgG competition ELISA (DELFIA) against biotinylated human PAI-1, one-site binding analysis; column Dog
# T7 construct: also called canine PAI-1
# PAI-3 = target: T3, PAI-3; assay: competition ELISA (DELFIA): PICK167_A01 IgG1 coated on the plate, biotinylated human PAI-1, titration of the unlabelled test antigen
# α1-antitrypsin = target: T8, α1-antitrypsin (UniProt P01009 25-418); assay: as above
# T8 construct: also called alpha-1-antitrypsin
# PAI-2 = PAI-2 (UniProt P05120 1-415, limits assumed); assay: as above
# α2-antiplasmin = target: T4, α2-antiplasmin; assay: as above
# antithrombin III = antithrombin III (UniProt P01008 33-464); assay: as above
binder,measurement,setting,value
B1,fold difference in observed binding KD compared to human wild-type active,latent human PAI-1 [1],8.5 fold
same,fold difference in observed binding KD compared to human wild-type active,[2],1.2 fold
same,fold loss of binding affinity against wild-type active PAI-1,latent human PAI-1 [3],10 fold
same,"IC50, PAI-1:tPA functional assay",rat PAI-1 [4],1.97 nM
same,"IC50, PAI-1:tPA functional assay",[5],1.34 nM
same,"IC50, PAI-1:tPA functional assay",cynomolgus PAI-1,0.8 nM
same,fold difference in observed binding KD compared to human wild-type active,rat PAI-1 [6],9.7 fold
same,fold difference in observed binding KD compared to human wild-type active,rabbit PAI-1,41.5 fold
same,fold difference in observed binding KD compared to human wild-type active,[7],2.7 fold
same,binding result,PAI-3,no binding (tested: log M about -6.3 (about 5e-7 M))
same,binding result,α1-antitrypsin,no binding (tested: log M about -6.3 (about 5e-7 M))
same,binding result,PAI-2,no binding (tested: log M about -6.3 (about 5e-7 M))
same,binding result,α2-antiplasmin,no binding (tested: log M about -6.3 (about 5e-7 M))
same,binding result,antithrombin III,no binding (tested: log M about -6.3 (about 5e-7 M))
